Test results taken from a protein production outcome set (Wang et al. 2014).

Assay: label from the status in PepcDB records

| Sequence | protein production |
| --- | --- |
| MRKVLSFSAFLIIGLLLSQYLPLLAGEGYATVKIVSNILLYICLSFIMINVGREFEVDKTRWRSYAGDYFIAMATAAMPWFLIAIYYVFVLLPPEFWNSWEAWKENLLLSRFAAPTSAGILFTMLAAIGLKSSWIYKKIQVLAIFDDLDTILLMIPLQIMMIGLRWQLIVVVFIVFLLLSLGWKQLGRYNWRQDWKAIMGYSVLVFVATQAVYYFSKQLYGEEGSIHIEVLLPAFVLGMIMKHKEIDTPVEHKVSTGVSFLFMFLVGMSMPHFIGVNFAETHAGTHSVTGSQEMMSWGMIALHVLIVSLLSNIGKLFPVFFYRDRKFSERLALSIGMFTRGEVGAGVIFIALGYNLGGPALVISVLTIVLNLILTGIFVLWVKKLALRSYTT | failed |
| MPYLPEVIIILVLIALNGIFAMSEFALVSAKKIRLRQKAEKGDAGAETALKLSNEPTAFLSTVQIGITLVGIFAGAFGGATIAGELDTYLRDFPALARYSATLSITLVVLIITYLTLILGELVPKQLALNNAETIASRVAKPMFFLSLMARPLVLVLSYSTDAVLRLLRVRKIIGPPVTEEEIKIMIEEGTEAGVFERAEMSMIEGVFDIGDRRVESLMTHRSDIIALDLDDPVDENLKKMIASGRSNFPVYERDLDDVIGIVSVKDVLAKLVESGKVDIRASVTKPLFAPEAITILKLLESFKETGMHIALITDEYGSVQGIITLHDILEAIVGDVRSLGEPEEEQITVLENGSWLIDGDTPVNKLKYVLSVDSFPGEEQGYYLTIAGLIMYILQRIPKTGDHMEFNGLRYEVVDMDGIRIDKVMVTKVPEISKD | not failed |
| MESLSIIFRWFVGLRSVGSSLGRKPDQTEETTLTTKLDIAPANDRELVVARIIDAPRENVYRCWTDTRLLTQWFSPKPWTTPRAEMDMRTGGSSLVIMADPDGNEFPNPGVFLEVIPGKKIIFTDAYTQAWEPSEKPFMTGVLTFEDEGEGRTRYIARVRHWSVADRERHEAMGFHVGWGQCTDQLEDLARTL | failed |
| MPPPAMLAFDDGLARKSNDNEWQGFRVFPGENTNPNPNINFLVKKAILQNEKSITPLFSRSSARDDSFRIVLPPALPPPRDSTVPLPMLPEPMRVRKKLSHQESVIFMSKSRFAEKILYKEEDFKCNAFCLSLPGFGKNKLIRSSSKRQNSMEKKMIRASSFTGSTVSVRASLEKFECGSWASTTALIQDNGRLFFDFPVEMTKCNSRGGNGGRDVQEPVTSGFLFDRETETLALRSVLKTRSTRDHRRSAESSPQRRVRFSTSSSSASVSCPTSPRTCITPRLRKARDDFNTFLTAQNA | failed |
| MDEPVRTFPITWLADYVMEDEGFSSREDINDLLMKEGFPLEPDLFMLTEIARKGIIEVTSSRDYSPEYALFLNLTFRDGSALNSRKVKVAWSEVCSPKQEGGLGLRSIAEANKVCVLKLIWRILSARRSLWVELVKKYLIRRGSFWLVKENTTCGSWIWKKILKYRDTAKSFYRVEVRNGEASSFGFDRWSEMGCLYDRLGARGCIDLGSPMTATVGEVMAGARRRKYRVAILNQVENEIVKQKLIRSNETDVALWNGKHDHYRKEFHTKETWLQIRTAKLLMENYNGIWFKHSTPKYSLITWLVQKNRVATGDKLIKWNPQVTPNCILCQHTLETWDHLFFMCPYSFQVWTKLAKGILHASFTANWTETLKLIHDNRLSKTKCFIVGYIFQNAIHSL | failed |
| MRRELLLEKIETYKAIMPWYVLDYYQSKLAVPYSFTTLYEYLKEYKRFFDWLMDADLTQAPKIADIDLSTLEHLTKKDLEAFVLYLRERPSLNTYSTKEGLSQTTINRTLSALSSLYKYLTEEVENDQGEPYFYRNVMKKVSTKKKKETLASRAENIKQKLFLGDETLAFLDYVDKEYEQKLSNRAKSSFRKNKE | failed |
| GPYATEVELREMVDIAQEHGIVEIEERRMIQSVFDLASTTVRQVMVPRPEMIWIESGKTAGQATALCVRSGHSRIPVIGENVDDIIGIVYLKDLVQKTYYATDGGKSVLVDEVMREATFVPDSKSLDALLQEMQEDHKHIAILVDEYGGVAGLISIEDILEEIVGEIADEYDAREVAPIEKIGDRTYRVVSRL | not failed |
| MNEPLSSLELLPEEEGGANLTYFAFAAPTASAPDLPAVLPGPLPDVLSGRYRLERMLGAGGMGTVYRARDLLHEQFGDPAPLVALKLLNESVAESPDASALLYSEFALTRRLRHPNVVRLFTFDVDTACQRAYIVMELMPGLPLDRLLCERPEGLPWSELSAIARPLLDVLAYVHEQGVLHGDLKPSNVMLGEEGVRLFDFGLGQAQAGILDGLPQLSRGRIDAWTPGYAAPELLEGAPLSPAADLYALACVLYELADGRHPFRRLPSNQAREQGLERQLRAPRHLPRRCWPALRTALSLDPERRCIGVRELQEALGARRSWLAGVLAR | failed |
| MTAAEPYTVELAADVHAYVQPDGGWCLNNAGFVSDGTTTLLVDTAATERRTRALSAAIAAAGVPAPRFVVNTHHHGDHTYGNSHFAPTATIVSHAECRRETLANGRQLHLLWPENDFGDIRIQAADLTYTGHTTVHVGAVDAEVIHPGVAHTVSDSVVWLPHRRVLFTGDLVFEGGTPFILMGSLSGSLRALDVLRQLGAETVVPGHGPVTDPSAFDRTERYLRFVADIAHKSHAAGRTPLEAARETDLGEFAALPESERFVANLHRAYAELDGAPEGAPLDVPAAVRDIAAMNGGRMVACHA | failed |
| MLEHAAGQPWIYPVLLVFFFIDGFATILPSETAIVGLSALSLHSGEPNLWILGGTALVGAMAGDNMAYMLGRKIGLTRWKWMRRPKVQKMFAWAQYELDKRGAVLIFTARYIPWGRVAVNYVAGQTGFRHRTFFWLDAFACITWVGYSIGIGLLAGQWVHHNPLLGVGIAVAFAVVLGIVVDHALRWWHKYLEKKDVAREAAASSEVKVAEPADLSQKAVAGADLSKPAG | failed |
| MSLIDFHVHLDLYPDPVAVARACEERQLTVLSVTTTPAAWRGTLALAAGRPHVWTALGFHPEVVSERAADLPWFDRYLPETRFVGEVGLDGSPSLRGTWTQQFAVFQHILRRCEDHGGRILSIHSRRAESEVLNCLEANPRSGTPILHWYSGSVTELRRAISLGCWFSVGPTMVRTQKGAALIRSMPRDRVLTETDGPFLELDGQAALPWDVKSVVEGLSKIWQIPASEVERIVKENVSRLLGTVREGHHHHHH | not failed |
| MKGENAMEHHTSVLSLMVVVAIAFFVPLLLQRFKLKALPVVVAEIIAGIFVGKSGFNIIEPDIWLQVLSTLGFIFLMFLSGLEIDFSIFKQKGKKNTTNEPNTFQAASIIFLFIFILSYALSLLFVWLGFVDNAMFMTLIISTISLGVVVPTLKENNLGKTAIGQIILLVAVIADLVTMILLAVFVGLNSESGQSMWLLLLLFGAGIVIYFVAKRFKNIPYLDSLKAGSVQIDTRAVFALILILVGLSESVGAENILGAFLAGVLVSLLSPNEDMVEKLDSIGYGFFIPIFFVMVGVNLEVWSIFKEPSSMLMIPILIVGLFISKLLPSLVLRKWYPRNIVLGSAILLTSTLSLVIAAAQIGEKLEIISPSLSVSLILSAVITCIFAPILFKKMFPKVETPKPKVAIIGASRITLPLSLDLKREDYDVTLYMMRQNKINDEEATSHDFPIVKLDDITIASLTEQTAFDADRVVVATSDDEQNLLLAEHAKELGVEHVIASVEDPLLQEKATQEHIAVFSTINSTRILLRALIDKPSLVRLITTANETVREVELRSNKYNGVALRRLPFLGDVLVIQIYRGNKALIPHGDTRLQHGDTLLVTGSKEHIDTLKNILE | failed |
| MNGDRTGLGSTRLGRIAIAGGKQLLGKINSARKNFPMKIFLLLLGFYTANALATILGQTGDWDVLVAGIVVAAIEGIGMLMYKKPSSSMFSGKLQSFVVFMNFWKAGVCLGLFVDAFKLGS | failed |
| MWLRSYRITFSCLTRLKTYRSSWKKLYSTSQTVDSKEVKTFQALAHSWWDEQGKFAPLHSMNDLRVPFIRDNLLKTSTNHDPGKPLSGMKILDVGCGGGLLTEPLGRLGASVVGIDPVAENIKIAQHHKSFDPVLDKRIQYRVCSLEETLNENAECFDAVVASEVVEHVNNLEMFIQCCYQVLKPGGSLFITTVNKTQLSYVLGIVFSEQIAGIVPKGTHTWEKFVSPEKLESILEPNGLSVETVAGMVYNPFSGYWHWTENTSLNYAAHAVRARAQEHLEPAESA | failed |
| MKHMEKFANHFGYNRMFAKDQLTLGVHIPIENYQFHAPTMEKQVELVQKAEQYGFTGVWLRDVLLQDPDFGDPATGQIYDMMIYLTYLASKTEKIAFGTSATVLSLRHPLRVAKEIATLDQLFPERIMLGVSSGDRRADFKALGVSHETRGEKFREAFAYLEEILYKNFPSIQSTLGEVHGANLVPKPSKRVPTFITGFSQQNMEWFAEHGDGWMYYPRSPVHQAGAIGQWRELVEDYHPDVFKPFIQPMHLDLSEDPNERPTPIRLGYRTGRKALIELLDIYKSIGVNHLFLALFDGQRPADEVLDELGEEVLPHFPAL | not failed |
| EIKLEDVLIKRRSVREYCSSPLTLRELSHILFAAYGVTDERGFKTVPSAGATYPLEIYVNVRDVVGVEEGVYKYIPERHSIVRILDEEVGHELALAALKQMFIAIAPIVLIIAANYERTTRVYGDRGFRYVHMEVGHVAQNVYLMATSLGLGTVSVGAFYDNEIREILKIKEYPLLLMPVG | failed |
| MKRLMFIGPSQCGKTSLTQSLRGEALHYKKTQAIEWSPMAIDTPGEYLENRCLYSALLTSACEADVIALVLNADAQWSPFSPGFTVPMNRPTIGLVTKADLADPQRISLVAQWLTQAGARQIFITSALNNSGLDAVLDFLNSKEPLCLTKLEHHHHHH | failed |
| MRATEDHTIFDRGVGQRDQLQRLWTPYRMNYLAEAPVKRDPNSSASPAQPFTEIPQLSDEEGLVVARGKLVYAVLNLYPYNPGHLMVVPYRRVSELEDLTDLESAELMAFTQKAIRVIKNVSRPHGFNVGLNLGTSAGGSLAEHLHVHVVPRWGGDANFITIIGGSKLEHHHHHH | failed |
| MSRPRLELGTWGKITRTEVAEGKHRARARFRDFTGKTRQVEAYGASGAKAERQLLANLRSRVESAGDTISGNTTVSSLGKIWTGNLGKSDEHTEQTIERYESIVEKIIGPALGEYLIMEATVSRVDGFLRALADKTPGRAKTTKSVLKSMFDLAVRHDALRTNPVREVRLPTKRKKPVQALTIDEVGTLREGLRKWQAADGVKGPTRSTELLDVVDLMLGTGMRIGEVLALRWSDVDLGEHPRLTVSGTLVPIKEKGLRRQAHTKTASGFRVLTLPAFVVEVLLRRSVESIPTETNAVFPSGAGTWKWPNNYRRALRAALKEMENTSGITPHVFRKSVATLIDAEATLEAAAAVLGHSGTGVTSAHYVAKAATAPDMSSILDQFGGNRIQKDG | failed |
| MKSVAGGLLRIGMRHDHDMTNRRLDAVILAGGCAHRLGGVAKANLRVGTRRLLDVVLDAVDGAREGLEGSNVVVARESVEVPWSVIRTMEDPPGSGPLAGIRAGLQALPPAQPDDLVLVCAVDSPGIGRSIRQLREALEDDPLNHFAGAVTFGGVPKPHRQLLQGLYRRVPLEASIAAADTVVNRSVHSVLGGLCLLDLPVEPEACRDLDTPGDVEWWLRHIGD | failed |
| MGHHHHHHSHAAAMANNLQKGSAGPMRLYVGSLHFNITEDMLRGIFEPFGRIESIQLMMDSETGRSKGYGFITFSDSECAKKALEQLNGFELAGRPMKVGHVTERTD | not failed |
| MSSACDAGDHYPLHLLVWKNDYRQLEKELQGQNVEAVDPRGRTLLHLAVSLGHLESARVLLRHKADVTKENRQGWTVLHEAVSTGDPEMVYTVLQHRDYHNTSMALEGVPELLQKILEAPDFYVQMKWEFTSWVPLVSRICPNDVCRIWKSGAKLRVDITLLGFENMSWIRGRRSFIFKGEDNWAELMEVNHDDKVVTTERFDLSQEMERLTLDLMKPKSREVERRLTSPVINTSLDTKNIAFERVFRVLKLTLLQLTVCS | failed |
